± gives the uncertainty stated by the source.
B1: SAM and SH3 domain-containing protein 1, residues 630 to 700; numbered along this chain, O94885 (parent)
chain: GRPPQPKSVEDLLDRINLKEHMPTFLFNGYEDLDTFKLLEEEDLDELNIRDPEHRAVLLTAVELLQEYDSN
B2: Proto-oncogene vav, residues 782 to 842; numbered along this chain, P15498 (parent)
chain: KYFGTAKARYDFCARDRSELSLKEGDIIKILNKKGQQGWWRGEIYGRVGWFPANYVEEDYS

Variants of: B1
Experiment: abundance fitness (aPCA) (normalised: wild type 0, dead -1); higher = more abundant; growth selection in yeast, the domain comes from the species named
Conditions: Homo sapiens

Abundance fitness of substitutions, site by site:
N71: C -0.009 ± 0.12 | I -0.117 ± 0.054 | Y -0.132 ± 0.062 | W -0.256 ± 0.087 | Q 0.121 ± 0.059 | V 0.035 ± 0.053 | F -0.117 ± 0.082 | M -0.071 ± 0.072 | R 0.087 ± 0.052 | P 0.005 ± 0.051 | H 0.056 ± 0.048 | A 0.116 ± 0.045 | G 0.041 ± 0.053 | E 0.163 ± 0.074 | K 0.007 ± 0.058 | D 0.197 ± 0.047
S70: T 0.422 ± 0.28 | F -0.508 ± 0.23
D69: I -0.836 ± 0.09 | S -0.296 ± 0.04 | T -0.358 ± 0.045 | K -0.29 ± 0.055 | R -0.531 ± 0.058 | N -0.289 ± 0.058 | Q -0.262 ± 0.052 | Y -0.644 ± 0.066 | P -0.081 ± 0.041 | V -0.971 ± 0.086 | H -0.327 ± 0.056 | W -0.752 ± 0.093 | M -0.822 ± 0.079 | G -0.132 ± 0.056

Variants of: B2
Experiment: as above
Conditions: Homo sapiens

Abundance fitness: each site, then its substitutions
C13: R 0.025 ± 0.063 | I -0.108 ± 0.13 | E 0.12 ± 0.086 | F -0.006 ± 0.11 | M -0.119 ± 0.086 | Y -0.198 ± 0.12 | A -0.063 ± 0.066 | L -0.058 ± 0.057 | N 0.123 ± 0.2 | T 0.146 ± 0.1 | D -0.28 ± 0.14 | Q 0.098 ± 0.15 | V 0.1 ± 0.054 | S 0.028 ± 0.06 | P -0.178 ± 0.1 | K -0.201 ± 0.11 | G -0.285 ± 0.062 | W -0.087 ± 0.089 | H -0.131 ± 0.24
R9: N -0.282 ± 0.15 | T -0.086 ± 0.096 | S -0.34 ± 0.088 | G -0.75 ± 0.12 | Y -0.821 ± 0.27 | E -0.614 ± 0.25 | P -0.972 ± 0.3 | W -0.737 ± 0.2 | F 0.05 ± 0.18 | H -0.505 ± 0.22 | C -0.356 ± 0.11 | K 0.072 ± 0.097 | M -0.027 ± 0.081 | I -0.296 ± 0.13
K1: H -0.109 ± 0.45 | R -0.643 ± 0.2 | V -0.241 ± 0.12 | G -0.227 ± 0.095 | Q 0.088 ± 0.27 | P -0.822 ± 0.32 | E -0.16 ± 0.12 | S -0.198 ± 0.13 | D -0.437 ± 0.27 | W -0.474 ± 0.12 | Y -0.261 ± 0.25 | T -0.27 ± 0.12 | N 0.099 ± 0.13 | L -0.21 ± 0.1 | F -0.159 ± 0.36 | A -0.456 ± 0.14
A8: C -0.582 ± 0.2 | I -0.535 ± 0.23 | R -0.903 ± 0.12 | Q -0.956 ± 0.35 | W -1.04 ± 0.32 | P -0.606 ± 0.13 | T -0.756 ± 0.19 | E -0.745 ± 0.14 | D -0.864 ± 0.38 | V -0.035 ± 0.069 | M -0.727 ± 0.26 | F -0.785 ± 0.26 | G -0.953 ± 0.11 | L -0.731 ± 0.14 | Y -0.708 ± 0.38 | H -0.62 ± 0.21
Y10: G -0.177 ± 0.05 | L -0.122 ± 0.07 | Q 0.107 ± 0.11 | A 0.029 ± 0.064 | H 0.079 ± 0.13 | P -0.847 ± 0.18 | I -0.115 ± 0.1 | K 0.047 ± 0.11 | M 0.098 ± 0.11 | S 0.044 ± 0.059 | N -0.393 ± 0.24 | D -0.305 ± 0.11 | E -0.13 ± 0.099 | C -0.338 ± 0.1 | W -0.116 ± 0.087 | V -0.184 ± 0.068
A6: H -0.677 ± 0.13 | C -0.115 ± 0.068 | S -0.654 ± 0.073 | P -0.832 ± 0.2 | D -0.679 ± 0.12 | K -0.725 ± 0.24 | F -0.694 ± 0.11 | T -0.883 ± 0.14 | E -0.904 ± 0.24 | I -0.852 ± 0.13 | M -0.733 ± 0.19 | Y -0.264 ± 0.069 | V -0.214 ± 0.054 | N -0.905 ± 0.15
R15: Q -0.26 ± 0.11 | N -0.411 ± 0.19 | G -0.316 ± 0.07 | T -0.181 ± 0.1 | C -0.444 ± 0.15 | Y -0.414 ± 0.14 | H -0.293 ± 0.31 | K -0.169 ± 0.13 | P -0.925 ± 0.37 | S -0.386 ± 0.089 | D -0.466 ± 0.32 | V -0.471 ± 0.093 | A -0.418 ± 0.12 | M -0.507 ± 0.14 | F -0.78 ± 0.23
F12: I -0.536 ± 0.25 | C -0.83 ± 0.37 | V -0.763 ± 0.13 | P -1.13 ± 0.38 | M -0.827 ± 0.28 | N -0.671 ± 0.32 | E -1.01 ± 0.29 | W -0.114 ± 0.075 | A -0.537 ± 0.12 | T -0.952 ± 0.43 | K -1.01 ± 0.44 | S -0.886 ± 0.2 | G -0.977 ± 0.16 | Q -0.553 ± 0.28 | H -0.029 ± 0.44 | L -0.813 ± 0.15 | R -0.365 ± 0.066
Y2: G -0.15 ± 0.093 | E -0.238 ± 0.18 | C -0.229 ± 0.1 | D 0.021 ± 0.14 | K -0.392 ± 0.23 | H -0.138 ± 0.1 | M -0.082 ± 0.12 | F 0.061 ± 0.11 | P -0.212 ± 0.1 | I -0.097 ± 0.27 | N 0.228 ± 0.19 | T -0.138 ± 0.093 | V -0.247 ± 0.087 | S -0.033 ± 0.078 | L -0.323 ± 0.065 | R -0.226 ± 0.083 | W -0.36 ± 0.12
F3: W -0.166 ± 0.083 | R -0.145 ± 0.059 | N -0.173 ± 0.097 | C -0.105 ± 0.086 | P -0.232 ± 0.09 | K -0.103 ± 0.12 | I 0.058 ± 0.094 | M -0.054 ± 0.087 | D -0.274 ± 0.13 | Y -0.009 ± 0.14 | S -0.167 ± 0.057 | L 0.027 ± 0.057 | G -0.268 ± 0.09 | T -0.063 ± 0.087 | E -0.192 ± 0.17 | V -0.029 ± 0.068 | H -0.396 ± 0.13
A14: H -0.562 ± 0.23 | T -0.54 ± 0.15 | S -0.237 ± 0.072 | N -0.742 ± 0.34 | V -0.889 ± 0.15 | L -1.03 ± 0.19 | P -0.355 ± 0.12 | Q -0.541 ± 0.12 | C -0.83 ± 0.38 | W -0.649 ± 0.14 | K -0.692 ± 0.18 | F -0.804 ± 0.24 | Y -0.328 ± 0.16 | E -0.873 ± 0.26 | M -0.931 ± 0.23
E19: K -0.885 ± 0.22 | G -0.678 ± 0.14 | D -0.654 ± 0.25 | Q -0.103 ± 0.19 | L -0.593 ± 0.098 | F -0.657 ± 0.28 | C -0.502 ± 0.14 | H -0.137 ± 0.21 | M 0 ± 0.1 | R -1.08 ± 0.32 | A -1 ± 0.34
T5: E -0.25 ± 0.11 | K -0.468 ± 0.14 | Y -0.064 ± 0.13 | H -0.094 ± 0.12 | W -0.178 ± 0.088 | V -0.159 ± 0.065 | P -0.401 ± 0.12 | A -0.084 ± 0.067 | C -0.152 ± 0.11 | S -0.179 ± 0.077 | L -0.099 ± 0.069 | I -0.248 ± 0.14 | F 0.168 ± 0.13 | R -0.209 ± 0.059 | M -0.209 ± 0.096
S18: H -0.096 ± 0.21 | M -0.271 ± 0.091 | T -0.068 ± 0.1 | N 0.024 ± 0.16 | A 0.064 ± 0.08 | Q -0.451 ± 0.15 | R -0.156 ± 0.057 | W -0.258 ± 0.084 | Y -0.158 ± 0.14 | E -0.277 ± 0.12 | K -0.239 ± 0.13 | L -0.368 ± 0.073 | P -0.794 ± 0.23 | C -0.364 ± 0.13 | V -0.599 ± 0.11 | D -0.169 ± 0.2 | G -0.194 ± 0.081
D11: T -0.316 ± 0.1 | K -0.362 ± 0.12 | Q -0.363 ± 0.14 | M -0.35 ± 0.091 | W -0.715 ± 0.16 | H -0.503 ± 0.14 | I -0.693 ± 0.49 | G -0.258 ± 0.07 | V -0.587 ± 0.095 | Y -0.441 ± 0.28 | A -0.103 ± 0.08 | E -0.159 ± 0.098 | F -0.901 ± 0.28 | P -0.284 ± 0.1 | L -0.607 ± 0.074 | C -0.264 ± 0.15 | N 0.086 ± 0.07 | S -0.251 ± 0.084
K7: W -0.407 ± 0.099 | H -0.233 ± 0.21 | A -0.475 ± 0.1 | L -0.191 ± 0.058 | S -0.381 ± 0.089 | Q -0.093 ± 0.094 | P -0.97 ± 0.29 | D -0.766 ± 0.39 | E -0.511 ± 0.12 | M 0.006 ± 0.11 | V -0.152 ± 0.083 | I -0.232 ± 0.17 | G -0.629 ± 0.13 | N -0.797 ± 0.42 | Y -0.133 ± 0.16 | C -0.04 ± 0.14
D16: Q -0.108 ± 0.11 | T -0.135 ± 0.091 | G -0.11 ± 0.071 | Y -0.445 ± 0.13 | L -0.418 ± 0.072 | K -0.174 ± 0.12 | M -0.499 ± 0.2 | E -0.225 ± 0.11 | F -0.618 ± 0.17 | H 0.022 ± 0.11 | R -0.112 ± 0.064 | S 0 ± 0.069 | V -0.308 ± 0.071 | P -0.839 ± 0.22 | W -0.617 ± 0.081
R17: P 0.031 ± 0.11 | C 0.1 ± 0.18 | F -0.315 ± 0.15 | L 0.035 ± 0.065 | D -0.046 ± 0.12 | H -0.076 ± 0.15 | V -0.014 ± 0.058 | T -0.027 ± 0.12 | W -0.223 ± 0.11 | N 0.061 ± 0.16 | K 0.065 ± 0.12 | Q -0.044 ± 0.1 | M -0.06 ± 0.1 | G -0.012 ± 0.09 | A 0.056 ± 0.072 | E -0.027 ± 0.11 | Y 0.107 ± 0.16
G4: D -0.083 ± 0.075 | N -0.166 ± 0.15 | P 0.011 ± 0.099 | M -0.164 ± 0.12 | T -0.089 ± 0.11 | H -0.292 ± 0.19 | F -0.348 ± 0.17 | Y -0.213 ± 0.15 | Q -0.151 ± 0.12 | C -0.274 ± 0.14 | L -0.247 ± 0.071 | W -0.169 ± 0.11 | S -0.111 ± 0.058 | I -0.238 ± 0.19 | A -0.163 ± 0.081 | E -0.298 ± 0.11 | R -0.183 ± 0.068

Source: the Human Domainome abundance scans (Beltran et al. 2025)
